Test results reported in the supplement of paper PMC7125110.
± gives the standard error. For some assays here: Variants at the floor of the assay were thinned out.

B1: glmS ribozyme (parent)
chain: AUAAAAGCGCCAGAACUACAGAAAUGUAGUUGACGAGGAGGAGGUUUAUCGAAUUUUCGGCGGAUGCCUCCAAA

Legend:
Details in all cases: with glucosamine-6-phosphate
glucosamine-6-phosphate [1] = variants of: B1; assay: kcat; higher = faster cleavage; RNA array
How it was run: (§1)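 Over ~14 h at 37 °C, tiles were imaged as glucosamine-6-phosphate (40 μM to 10 mM) in HEPES/KCl/Mg(OAc)2 buffer flowed across sequenced MiSeq chips. The chips carried barcoded ribozyme variants transcribed in situ by E. coli RNA polymerase and tracked with a hybridised Cy3 probe. After normalisation to baseline and to non-cleaving reference variants, one- or two-exponential decay fits of per-tile medians gave kobs. kcat and KM followed from weighted Michaelis–Menten fits across concentrations.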

glucosamine-6-phosphate [2] = variants of: B1; assay: self-cleavage kobs at 160 uM GlcN6P; higher = faster cleavage; RNA array
How it was run: as §1

glucosamine-6-phosphate [3] = variants of: B1; assay: self-cleavage kobs at 640 uM GlcN6P; higher = faster cleavage; RNA array
How it was run: as §1

glucosamine-6-phosphate [4] = variants of: B1; assay: self-cleavage kobs at 10000 uM GlcN6P; higher = faster cleavage; RNA array
How it was run: as §1

glucosamine-6-phosphate [5] = variants of: B1; assay: self-cleavage kobs at 40 uM GlcN6P; higher = faster cleavage; RNA array
How it was run: as §1

glucosamine-6-phosphate [6] = variants of: B1; assay: KM; higher = weaker cofactor use; RNA array
How it was run: as §1

glucosamine-6-phosphate [7] = variants of: B1; assay: self-cleavage kobs at 2500 uM GlcN6P; higher = faster cleavage; RNA array
How it was run: as §1

Variant	kcat (glucosamine-6-phosphate [1])	self-cleavage kobs at 160 uM GlcN6P (glucosamine-6-phosphate [2])	self-cleavage kobs at 640 uM GlcN6P (glucosamine-6-phosphate [3])	self-cleavage kobs at 10000 uM GlcN6P (glucosamine-6-phosphate [4])	self-cleavage kobs at 40 uM GlcN6P (glucosamine-6-phosphate [5])	KM (glucosamine-6-phosphate [6])	self-cleavage kobs at 2500 uM GlcN6P (glucosamine-6-phosphate [7])
A6U G60C C67A	< 1e-05 s⁻¹	< 1e-05 s⁻¹	< 1e-05 s⁻¹	< 1e-05 s⁻¹	–	–	–
G35C C68U	< 1e-05 s⁻¹	< 1e-05 s⁻¹	–	–	< 1e-05 s⁻¹	–	–
C70U C71A	0.000245 ± 1.7e-05 s⁻¹	5.23e-05 ± 9.7e-06 s⁻¹	0.00013 ± 1.4e-05 s⁻¹	0.000247 ± 3e-05 s⁻¹	–	607 ± 110 µM	0.00018 ± 2.3e-05 s⁻¹
A39G A64U	0.000215 ± 3.3e-05 s⁻¹	–	3.77e-05 ± 1.6e-05 s⁻¹	0.000168 ± 5.5e-05 s⁻¹	< 1e-05 s⁻¹	3440 ± 950 µM	8.33e-05 ± 2.5e-05 s⁻¹
G38A A52C	1.04e-05 ± 2.3e-07 s⁻¹	–	< 1e-05 s⁻¹	< 1e-05 s⁻¹	–	129 ± 16 µM	–
C58U C61G	3.19e-05 ± 9.4e-06 s⁻¹	–	5.03e-05 ± 1.4e-05 s⁻¹	–	–	–	2.9e-05 ± 1.3e-05 s⁻¹
A12C U49G	0.000332 ± 1.7e-05 s⁻¹	–	8.81e-05 ± 2e-05 s⁻¹	0.000282 ± 4e-05 s⁻¹	–	1730 ± 210 µM	0.000216 ± 9.7e-05 s⁻¹
U69G C71G	5.4e-05 ± 2.4e-05 s⁻¹	–	9.05e-05 ± 1.6e-05 s⁻¹	–	–	–	3.23e-05 ± 1.5e-05 s⁻¹
C10U A52G	< 1e-05 s⁻¹	–	–	–	–	–	–
U65A C68G	4.89e-05 ± 9e-06 s⁻¹	8.12e-05 ± 1.8e-05 s⁻¹	6.22e-05 ± 1e-05 s⁻¹	3.81e-05 ± 7.3e-06 s⁻¹	–	–	4.97e-05 ± 1.2e-05 s⁻¹
C11U C58G	3.35e-05 ± 2.6e-07 s⁻¹	–	–	3.28e-05 ± 7.7e-06 s⁻¹	–	188 ± 18 µM	3.13e-05 ± 1e-05 s⁻¹
G59U U65G	< 1e-05 s⁻¹	–	< 1e-05 s⁻¹	–	–	–	–
U56G C58U	0.000147 ± 7.7e-06 s⁻¹	–	–	9.06e-05 ± 8e-06 s⁻¹	–	6310 ± 710 µM	4.08e-05 ± 8.6e-06 s⁻¹
A15G A33C	0.000368 ± 3.1e-05 s⁻¹	–	8.06e-05 ± 9.8e-06 s⁻¹	0.00029 ± 4.2e-05 s⁻¹	–	2210 ± 330 µM	0.000213 ± 3e-05 s⁻¹
A12G U30G	8.75e-05 ± 7.1e-06 s⁻¹	–	–	7.28e-05 ± 7.5e-06 s⁻¹	< 1e-05 s⁻¹	1830 ± 510 µM	5.48e-05 ± 8.9e-06 s⁻¹
A14U U65C	8.95e-05 ± 1.3e-05 s⁻¹	–	3.59e-05 ± 8.9e-06 s⁻¹	7.83e-05 ± 7.7e-06 s⁻¹	–	–	9.87e-05 ± 1.3e-05 s⁻¹
G32U A33U	< 1e-05 s⁻¹	< 1e-05 s⁻¹	–	–	< 1e-05 s⁻¹	–	< 1e-05 s⁻¹
U47G G51C U57C C68U	1.54e-05 ± 3.7e-06 s⁻¹	–	–	–	< 1e-05 s⁻¹	–	–
A12G A15C	0.000514 ± 0.00013 s⁻¹	–	–	0.000205 ± 2.2e-05 s⁻¹	–	–	7.79e-05 ± 1e-05 s⁻¹
G43A C68A	2.1e-05 ± 8.5e-06 s⁻¹	–	–	–	–	–	–
